Experiments:
[1] = biological target: c-Src SH2; assay: SH2 binding enrichment of the phosphorylated peptide, bacterial display (enrichment ratio); higher = better substrate or ligand; peptides without Tyr show the background
[2] = biological target: SHP2-C SH2; assay: as above
[3] = biological target: Grb2 SH2 (UniProt P62993); assay: as above
[4] = test system: AncSZ; assay: phosphorylation enrichment, bacterial display (enrichment ratio); higher = better substrate or ligand; peptides without Tyr show the background
[5] = biological target: EPHB1 (UniProt P54762); assay: as above
[6] = biological target: EPHB2 (UniProt P29323); assay: as above
Sequence of EPHB2 (P29323 whole entry, looked up): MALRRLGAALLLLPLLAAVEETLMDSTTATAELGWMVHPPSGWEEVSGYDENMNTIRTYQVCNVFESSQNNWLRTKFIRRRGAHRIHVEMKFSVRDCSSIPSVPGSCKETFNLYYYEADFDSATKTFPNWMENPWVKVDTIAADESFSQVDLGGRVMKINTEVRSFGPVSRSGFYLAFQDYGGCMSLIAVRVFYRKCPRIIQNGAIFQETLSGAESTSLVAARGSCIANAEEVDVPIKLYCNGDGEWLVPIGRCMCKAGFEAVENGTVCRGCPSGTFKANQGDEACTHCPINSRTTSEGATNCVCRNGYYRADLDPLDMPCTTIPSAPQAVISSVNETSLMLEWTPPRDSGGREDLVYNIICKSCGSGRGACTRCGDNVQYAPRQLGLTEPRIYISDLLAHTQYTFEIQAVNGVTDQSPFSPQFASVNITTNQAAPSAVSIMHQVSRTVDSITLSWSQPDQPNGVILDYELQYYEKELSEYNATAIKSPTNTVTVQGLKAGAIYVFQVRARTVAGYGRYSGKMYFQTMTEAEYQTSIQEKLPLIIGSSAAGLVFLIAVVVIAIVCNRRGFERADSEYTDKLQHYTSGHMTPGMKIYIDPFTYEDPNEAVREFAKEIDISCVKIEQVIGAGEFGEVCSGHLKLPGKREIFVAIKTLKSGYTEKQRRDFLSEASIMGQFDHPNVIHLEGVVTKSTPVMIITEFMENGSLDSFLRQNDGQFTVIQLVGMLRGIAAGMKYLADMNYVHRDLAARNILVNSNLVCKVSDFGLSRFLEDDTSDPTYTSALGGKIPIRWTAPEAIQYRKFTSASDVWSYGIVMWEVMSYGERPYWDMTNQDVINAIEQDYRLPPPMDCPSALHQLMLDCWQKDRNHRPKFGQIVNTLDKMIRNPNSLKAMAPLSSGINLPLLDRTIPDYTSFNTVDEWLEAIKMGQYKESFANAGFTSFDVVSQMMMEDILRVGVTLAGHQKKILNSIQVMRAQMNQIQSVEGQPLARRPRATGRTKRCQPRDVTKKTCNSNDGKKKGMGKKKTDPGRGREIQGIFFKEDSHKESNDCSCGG

[7] = biological target: MERTK (UniProt Q12866); assay: as above
Sequence of MERTK (Q12866 whole entry, looked up): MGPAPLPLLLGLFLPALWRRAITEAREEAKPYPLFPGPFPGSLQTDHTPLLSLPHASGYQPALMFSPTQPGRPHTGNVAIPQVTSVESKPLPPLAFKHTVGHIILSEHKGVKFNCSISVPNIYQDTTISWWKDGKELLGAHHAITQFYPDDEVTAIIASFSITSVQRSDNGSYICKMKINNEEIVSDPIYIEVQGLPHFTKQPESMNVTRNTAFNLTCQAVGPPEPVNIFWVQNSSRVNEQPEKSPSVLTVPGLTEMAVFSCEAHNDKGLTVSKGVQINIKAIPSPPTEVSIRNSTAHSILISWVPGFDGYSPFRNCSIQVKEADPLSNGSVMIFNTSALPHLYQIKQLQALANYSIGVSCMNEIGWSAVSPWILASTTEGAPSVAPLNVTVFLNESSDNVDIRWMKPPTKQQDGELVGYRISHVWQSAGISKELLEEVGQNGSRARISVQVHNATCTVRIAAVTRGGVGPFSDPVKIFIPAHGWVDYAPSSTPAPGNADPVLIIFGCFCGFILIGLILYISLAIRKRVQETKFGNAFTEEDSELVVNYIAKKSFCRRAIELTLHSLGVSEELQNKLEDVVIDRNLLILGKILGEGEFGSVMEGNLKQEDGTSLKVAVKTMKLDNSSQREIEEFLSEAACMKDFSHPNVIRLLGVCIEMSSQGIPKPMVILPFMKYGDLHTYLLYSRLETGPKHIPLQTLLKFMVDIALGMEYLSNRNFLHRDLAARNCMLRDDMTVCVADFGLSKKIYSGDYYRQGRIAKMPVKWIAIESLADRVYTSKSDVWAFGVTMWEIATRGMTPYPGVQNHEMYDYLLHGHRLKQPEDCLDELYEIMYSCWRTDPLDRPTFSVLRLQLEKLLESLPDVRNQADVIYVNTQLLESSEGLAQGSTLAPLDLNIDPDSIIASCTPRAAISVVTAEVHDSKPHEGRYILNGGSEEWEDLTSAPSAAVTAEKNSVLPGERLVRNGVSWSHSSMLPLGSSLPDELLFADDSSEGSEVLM

[8] = biological target: FGFR3 (UniProt P22607); assay: as above
Sequence of FGFR3 (P22607 whole entry, looked up): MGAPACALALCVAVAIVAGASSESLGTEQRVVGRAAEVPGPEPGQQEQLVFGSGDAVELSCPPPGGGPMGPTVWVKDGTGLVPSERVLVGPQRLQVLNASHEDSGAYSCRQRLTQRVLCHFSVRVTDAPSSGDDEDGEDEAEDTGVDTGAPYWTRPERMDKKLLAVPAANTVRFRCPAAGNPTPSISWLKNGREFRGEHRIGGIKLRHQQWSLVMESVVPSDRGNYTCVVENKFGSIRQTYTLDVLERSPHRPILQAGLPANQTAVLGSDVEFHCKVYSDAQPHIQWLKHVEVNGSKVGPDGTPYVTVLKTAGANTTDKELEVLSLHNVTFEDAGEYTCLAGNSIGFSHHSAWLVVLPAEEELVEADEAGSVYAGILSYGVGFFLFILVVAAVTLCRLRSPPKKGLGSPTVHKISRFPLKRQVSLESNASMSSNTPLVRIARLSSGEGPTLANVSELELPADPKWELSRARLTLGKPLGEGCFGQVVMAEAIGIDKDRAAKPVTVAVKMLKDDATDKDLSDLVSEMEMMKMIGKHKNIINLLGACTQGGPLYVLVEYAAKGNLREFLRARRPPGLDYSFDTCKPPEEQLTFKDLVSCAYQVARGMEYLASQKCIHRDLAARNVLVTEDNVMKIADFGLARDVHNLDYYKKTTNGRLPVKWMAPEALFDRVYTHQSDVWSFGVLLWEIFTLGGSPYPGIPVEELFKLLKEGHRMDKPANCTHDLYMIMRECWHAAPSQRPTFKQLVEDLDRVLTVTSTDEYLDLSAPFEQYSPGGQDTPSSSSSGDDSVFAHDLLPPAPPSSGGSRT

[9] = biological target: Fyn (UniProt P06241); assay: as above
Sequence of Fyn (P06241 whole entry, looked up): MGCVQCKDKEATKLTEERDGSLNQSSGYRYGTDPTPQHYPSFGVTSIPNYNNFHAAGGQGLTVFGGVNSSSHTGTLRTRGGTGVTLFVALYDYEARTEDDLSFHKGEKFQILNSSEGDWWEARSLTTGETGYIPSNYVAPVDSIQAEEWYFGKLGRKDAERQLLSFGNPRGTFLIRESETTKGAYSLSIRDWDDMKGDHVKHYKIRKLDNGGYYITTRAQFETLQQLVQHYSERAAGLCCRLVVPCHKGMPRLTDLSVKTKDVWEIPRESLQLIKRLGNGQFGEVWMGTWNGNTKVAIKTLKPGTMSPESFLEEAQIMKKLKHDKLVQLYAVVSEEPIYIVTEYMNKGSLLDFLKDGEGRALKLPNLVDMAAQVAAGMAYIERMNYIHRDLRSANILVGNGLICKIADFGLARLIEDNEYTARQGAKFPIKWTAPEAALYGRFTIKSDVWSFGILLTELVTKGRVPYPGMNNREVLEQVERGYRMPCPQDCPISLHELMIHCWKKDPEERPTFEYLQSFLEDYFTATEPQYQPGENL

[10] = biological target: FGFR1 (UniProt P11362); assay: as above
[11] = test system: c-Src; assay: as above
[12] = biological target: Hck (UniProt P08631); assay: as above
Sequence of Hck (P08631 whole entry, looked up): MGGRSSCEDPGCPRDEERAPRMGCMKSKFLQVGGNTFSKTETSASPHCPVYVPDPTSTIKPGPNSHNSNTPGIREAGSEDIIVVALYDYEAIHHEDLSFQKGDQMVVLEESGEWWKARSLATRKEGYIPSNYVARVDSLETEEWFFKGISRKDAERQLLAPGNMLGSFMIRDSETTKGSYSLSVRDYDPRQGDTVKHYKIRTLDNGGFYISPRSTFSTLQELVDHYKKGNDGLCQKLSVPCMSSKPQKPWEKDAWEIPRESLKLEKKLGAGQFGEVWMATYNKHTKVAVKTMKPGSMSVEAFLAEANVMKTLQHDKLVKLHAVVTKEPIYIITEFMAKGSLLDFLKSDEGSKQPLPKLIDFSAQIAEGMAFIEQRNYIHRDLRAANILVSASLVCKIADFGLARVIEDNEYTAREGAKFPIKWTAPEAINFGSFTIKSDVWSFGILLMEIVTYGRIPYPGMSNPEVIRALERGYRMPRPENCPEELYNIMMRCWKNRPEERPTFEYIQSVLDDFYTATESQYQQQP

[13] = test system: Fer (mouse); assay: as above
[14] = biological target: Fes (UniProt P07332); assay: as above
[15] = biological target: Jak2 (UniProt O60674); assay: as above
Sequence of Jak2 (O60674 whole entry, looked up): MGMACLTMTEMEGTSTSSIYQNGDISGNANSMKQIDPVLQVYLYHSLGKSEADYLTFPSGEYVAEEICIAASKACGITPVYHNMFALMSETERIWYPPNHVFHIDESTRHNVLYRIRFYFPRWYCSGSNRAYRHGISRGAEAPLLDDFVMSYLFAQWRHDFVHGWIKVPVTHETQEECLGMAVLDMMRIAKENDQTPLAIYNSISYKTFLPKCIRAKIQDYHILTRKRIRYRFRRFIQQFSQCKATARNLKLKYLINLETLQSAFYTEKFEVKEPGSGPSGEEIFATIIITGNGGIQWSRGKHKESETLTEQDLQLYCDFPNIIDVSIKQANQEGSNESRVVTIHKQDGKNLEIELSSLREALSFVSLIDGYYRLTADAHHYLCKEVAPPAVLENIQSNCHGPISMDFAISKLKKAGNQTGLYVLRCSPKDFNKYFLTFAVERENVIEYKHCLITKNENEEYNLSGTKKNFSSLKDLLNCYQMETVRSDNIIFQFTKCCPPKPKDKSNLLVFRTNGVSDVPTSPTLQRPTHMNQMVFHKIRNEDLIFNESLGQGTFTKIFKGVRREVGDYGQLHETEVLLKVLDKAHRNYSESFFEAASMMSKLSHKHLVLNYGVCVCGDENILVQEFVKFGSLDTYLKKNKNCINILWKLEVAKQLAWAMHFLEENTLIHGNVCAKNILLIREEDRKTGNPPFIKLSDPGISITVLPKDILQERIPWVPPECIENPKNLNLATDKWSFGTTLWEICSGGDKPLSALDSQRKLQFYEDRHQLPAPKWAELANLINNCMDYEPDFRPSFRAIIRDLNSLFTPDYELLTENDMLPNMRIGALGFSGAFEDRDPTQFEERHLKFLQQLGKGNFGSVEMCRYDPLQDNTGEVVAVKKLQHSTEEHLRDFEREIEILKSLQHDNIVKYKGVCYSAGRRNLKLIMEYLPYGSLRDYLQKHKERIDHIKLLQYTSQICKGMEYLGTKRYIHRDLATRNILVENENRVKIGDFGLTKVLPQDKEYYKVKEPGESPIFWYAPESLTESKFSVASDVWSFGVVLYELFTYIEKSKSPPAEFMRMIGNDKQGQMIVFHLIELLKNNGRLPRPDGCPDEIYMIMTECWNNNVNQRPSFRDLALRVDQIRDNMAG

[16] = test system: c-Abl (mouse); assay: as above
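Throughout, for SH2 binding enrichment of the phosphorylated peptide, bacterial display: peptide library displayed on the E. coli surface as eCPX fusions, selected cells deep-sequenced, score is each peptide's frequency after selection divided by its frequency in the input.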
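Throughout, for phosphorylation enrichment, bacterial display: 11-residue human phosphosite peptides and single-mutation variants displayed on the E. coli surface, counted by deep sequencing, each peptide's frequency after selection divided by its frequency in the unselected input library; frequency after pTyr selection over input frequency; kinase dosed for 20-30% of maximal phosphorylation in three min.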

Row | SH2 binding enrichment [1] | SH2 binding enrichment [2] | SH2 binding enrichment [3] | Sequence | phosphorylation enrichment [4] | phosphorylation enrichment [5] | phosphorylation enrichment [6] | phosphorylation enrichment [7] | phosphorylation enrichment [8] | phosphorylation enrichment [9] | phosphorylation enrichment [10] | phosphorylation enrichment [11] | phosphorylation enrichment [12] | phosphorylation enrichment [13] | phosphorylation enrichment [14] | phosphorylation enrichment [15] | phosphorylation enrichment [16]
1 | 0.593 | 0.609 | 0.908 | SVMAEYGLYGA [VSX2_Y219] | 0.709 | 0.732 | 1.53 | 0.502 | 0.57 | 6.65 | 0.529 | 4.66 | 6.45 | 3.74 | 0.882 | 0.59 | 0.628
2 | 0.705 | 1.11 | 1.2 | PSQRCYVFFFS [PTEN_Y174_R173C_YF] | 1.37 | 0.865 | 0.735 | 0.646 | 1.35 | 0.79 | 0.837 | 0.646 | 0.616 | 0.703 | 1.73 | 1.24 | 0.882
3 | 0.452 | 0.631 | 0.793 | CGTPDYIAREI [PRKCG_Y521_P524R] | 1.26 | 0.724 | 0.622 | 0.445 | 0.866 | 0.53 | 0.633 | 0.443 | 0.631 | 0.604 | 1.13 | 1.06 | 0.849
4 | 0.525 | 0.771 | 1.07 | GTATAYLCRVK [ALPL_Y117_G120R] | 0.678 | 0.48 | 0.506 | 0.363 | 0.514 | 0.404 | 0.471 | 0.399 | 0.389 | 0.517 | 0.804 | 0.578 | 0.595
5 | 0.516 | 0.777 | 0.731 | AAVDTYCRHNY [HLA-DRB1_Y107] | 0.871 | 0.507 | 0.527 | 0.479 | 0.571 | 0.548 | 0.451 | 0.461 | 0.531 | 0.442 | 0.914 | 0.911 | 0.755
6 | 0.497 | 0.581 | 0.827 | ATVQNYLPKCI [A2M_Y817_L815Q] | 0.626 | 0.39 | 0.482 | 0.372 | 0.489 | 0.369 | 0.462 | 0.362 | 0.346 | 0.406 | 0.862 | 0.688 | 0.687
7 | 1.79 | 0.851 | 1.59 | RHLREYQDLLI [DES_Y388_N393I] | 0.912 | 1.02 | 0.744 | 0.482 | 0.813 | 0.655 | 0.899 | 0.482 | 0.592 | 0.636 | 1.21 | 0.74 | 0.708
8 | 0.562 | 0.668 | 0.81 | EESSHCSTEKE [ADAR_Y587_Y587C] | 1.06 | 0.631 | 0.683 | 0.502 | 0.663 | 0.598 | 0.593 | 0.5 | 0.598 | 0.424 | 1.01 | 0.8 | 0.559

The remaining lines, values behind:

Row | Sequence | SH2 binding enrichment [1] | SH2 binding enrichment [2] | SH2 binding enrichment [3] | phosphorylation enrichment [4] | phosphorylation enrichment [5] | phosphorylation enrichment [6] | phosphorylation enrichment [7] | phosphorylation enrichment [8] | phosphorylation enrichment [9] | phosphorylation enrichment [10] | phosphorylation enrichment [11] | phosphorylation enrichment [12] | phosphorylation enrichment [13] | phosphorylation enrichment [14] | phosphorylation enrichment [15] | phosphorylation enrichment [16]
9 | DEEDTYTMPST [PTK2_Y407] | 0.469 | 0.563 | 0.869 | 3.8 | 0.528 | 0.627 | 0.657 | 0.776 | 3.77 | 0.568 | 2.94 | 1.83 | 0.691 | 1.29 | 1.25 | 1.12
10 | CTTIPYNFMCN [TP53_Y234_H233P_YF] | 2.07 | 0.994 | 0.927 | 0.945 | 0.449 | 0.514 | 0.482 | 0.726 | 0.48 | 0.515 | 0.753 | 0.561 | 0.424 | 0.926 | 0.718 | 0.528
11 | AVLVQYFMEHH [PTPN11_Y80_E76V_YF] | 1.19 | 1.51 | 1.37 | 0.934 | 0.638 | 0.613 | 0.429 | 0.813 | 0.503 | 0.466 | 0.421 | 0.448 | 0.484 | 1.15 | 1.07 | 0.638
12 | TINPIYEHVGF [CHN1_Y143_YF] | 0.518 | 0.69 | 0.83 | 1.02 | 19.7 | 23.4 | 11.7 | 0.802 | 12.6 | 0.739 | 9.42 | 11.6 | 18.2 | 9.52 | 1.18 | 12.5
13 | FLQEIHNSNNQ [FGG_Y140_Y140H_YF] | 0.416 | 0.867 | 0.71 | 0.823 | 0.561 | 0.436 | 0.443 | 0.716 | 0.511 | 0.606 | 0.391 | 0.538 | 0.607 | 1.01 | 0.63 | 0.808
14 | KNAEKYAEEDR [HSPA9_Y568] | 0.624 | 0.819 | 0.992 | 1.08 | 0.506 | 0.506 | 0.444 | 0.709 | 0.528 | 0.47 | 0.411 | 0.571 | 0.499 | 1.1 | 0.822 | 0.674
15 | YFRDGCMPRQY [GSS_Y270_Y270C] | 0.499 | 0.637 | 1.08 | 0.938 | 0.602 | 0.552 | 0.406 | 0.883 | 0.43 | 0.6 | 0.364 | 0.438 | 0.505 | 0.948 | 0.833 | 0.72
16 | SLNAVYPRAGS [OAS3_Y376] | 0.452 | 0.509 | 0.872 | 0.451 | 0.306 | 0.323 | 0.378 | 0.357 | 0.331 | 0.384 | 0.368 | 0.368 | 0.314 | 0.481 | 0.462 | 0.507
17 | HGAGHYEDTIL [ALK_Y1604_P1599H] | 2.81 | 0.791 | 0.775 | 1.26 | 0.829 | 0.652 | 0.682 | 0.978 | 0.734 | 0.787 | 0.752 | 0.724 | 4.64 | 1.17 | 1 | 0.958
